The text below walks through data of the supplement of paper PMC10126150.

The subject of this data set is ATP. The experiment in a line: switch fluorescence ratio, 500 uM ATP over buffer (Cy3 cluster intensity, sum of 5 cycles each) (fold (ratio)); higher = stronger signal-on switching upon ATP binding; sequences stand for … in TCGTCGGCAGCGTCAGATGTGTATAAGAGACAGTTTTTTTTTTTTTTTTTTTTTTTTT…TC. Conditions: aptamer strand: ATP DNA aptamer (quencher-CACCTGGGGGAGTATTGCGGAGGAAGG + anchor), 100 nM annealed; ATP concentration: 500 uM. The method in brief:
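Imaging in selection buffer was followed by imaging after 15 min with 500 uM ATP at 22 °C, for Cy3-labelled switching-strand clusters annealed to 100 nM quencher-labelled ATP aptamer on a modified Illumina MiSeq flow-cell. Five of these buffer/ATP cycles ran, separated by NaOH stripping and re-annealing. The fluorescence ratio per cluster is summed target-cycle over summed buffer-cycle Cy3 intensity, averaged per switch-domain sequence; clusters outside 100-1000 RFU were removed.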

± gives the standard deviation of the averaged measurements.
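Further: ATP exposure 15 min at 22 °C before imaging.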

Regarding GAAATTAATA, the switch fluorescence ratio was determined as 0.993 ± 0.027.
On to GAAATTGGGA, for which the switch fluorescence ratio worked out at 1.08 ± 0.12.
As to GAAATTTAAA, the switch fluorescence ratio came to 0.99756 ± 0.00083.
Take GAAATTTACT: the switch fluorescence ratio was determined as 0.991 ± 0.053.
The result for GAAATTTTCC reads 1.35 ± 0.077.
On to GAACAAGGGA, for which the switch fluorescence ratio amounted to 1.004 ± 0.0086.
With GAACACTTCT, the switch fluorescence ratio was determined as 1.05 ± 0.014.
As to GAACAGTCCG, the switch fluorescence ratio is 1.051 ± 0.0039.
In the case of GAACATCTCG, the switch fluorescence ratio was found to be 0.993 ± 0.035.
For GAACGAAAGG, the switch fluorescence ratio stood at 1.03 ± 0.042.
On to GAACGACCGC, for which the switch fluorescence ratio was 1.34 ± 0.065.
Turning to GAACGGACAC, the switch fluorescence ratio was 1.45 ± 0.015.
Turning to GAACGGCATG, the switch fluorescence ratio was 1.04 ± 0.015.
For the sequence GAACGGCCGG, the switch fluorescence ratio is 1.004 ± 0.0092.
On to GAACTACAGG, for which the switch fluorescence ratio was found to be 0.987 ± 0.041.
The result for GAACTCTACT reads 1.14 ± 0.044; that for GAACTGGGGC, 0.942 ± 0.076.
For GAAGAAAACT, the switch fluorescence ratio was 1.08 ± 0.014.
GAAGAACGAA: the switch fluorescence ratio amounted to 1.022 ± 0.004.
GAAGACAGCG: the switch fluorescence ratio was 1.07 ± 0.024.
For the sequence GAAGAGAGGG, the switch fluorescence ratio is 1.016 ± 0.0092.
With GAAGAGAGGT the figure was 0.9901 ± 0.0037; with GAAGAGGAGG, 1.04 ± 0.011.
As for GAAGAGGGGG, the switch fluorescence ratio was 0.991 ± 0.043.
As to GAAGAGTCGT, the switch fluorescence ratio was 0.992 ± 0.064.
In the case of GAAGATGTAG, the switch fluorescence ratio came to 0.9558 ± 0.0033.
The result for GAAGATTGGT reads 0.981 ± 0.028; that for GAAGCACGCC, 1.45 ± 0.0069; that for GAAGCCGGGG, 0.9839 ± 0.0083.
As to GAAGCGTTTG, the switch fluorescence ratio was 0.98 ± 0.039.
The result for GAAGGAGTGC reads 1.07 ± 0.018; that for GAAGGAGTGG, 1.027 ± 0.01; that for GAAGGCAGTC, 1.13 ± 0.04.
GAAGGCAGTG: the switch fluorescence ratio turned out to be 1 ± 0.011.
As for GAAGGCGTTT, the switch fluorescence ratio stood at 0.9778 ± 0.0032.
For GAAGGGAATG, the switch fluorescence ratio stood at 1.01 ± 0.017.
As for GAAGGGACGT, the switch fluorescence ratio is 1.07 ± 0.026.
Turning to GAAGGGCATA, the switch fluorescence ratio was found to be 1.02 ± 0.019.
For the sequence GAAGGGCATC, the switch fluorescence ratio amounted to 0.989 ± 0.043.
With GAAGGGCGGA, the switch fluorescence ratio worked out at 1.018 ± 0.0045.
Regarding GAAGGGCTGT, the switch fluorescence ratio amounted to 0.993 ± 0.029.
As for GAAGGGGTCA, the switch fluorescence ratio worked out at 0.9904 ± 0.0089.
The result for GAAGGGTAAC reads 1.03 ± 0.018.
With GAAGGTATTG, the switch fluorescence ratio is 0.977 ± 0.013.
With GAAGGTCCAC, the switch fluorescence ratio was determined as 1.017 ± 0.0078.
For GAAGGTGGCT, the switch fluorescence ratio stood at 1.01 ± 0.026.
The result for GAAGTAGCGA reads 1.05 ± 0.015.
With GAAGTAGGAG, the switch fluorescence ratio was 1.01 ± 0.032.
Regarding GAAGTCCAGA, the switch fluorescence ratio amounted to 1.01 ± 0.07.
For GAAGTCCGGG, the switch fluorescence ratio was 0.9871 ± 0.0048.
On to GAAGTCTTAA, for which the switch fluorescence ratio came out at 1 ± 0.033.
With GAAGTGAGTT the figure was 1 ± 0.018.
Consider GAAGTGATGG, for which the switch fluorescence ratio was found to be 1.135 ± 0.008.
Regarding GAAGTGGCTT, the switch fluorescence ratio was found to be 0.9801 ± 0.0014.
Consider GAAGTGGGTT, for which the switch fluorescence ratio turned out to be 0.989 ± 0.024.
For the sequence GAAGTTCAGG, the switch fluorescence ratio was found to be 1.03 ± 0.018.
On to GAAGTTTGTA, for which the switch fluorescence ratio is 0.992 ± 0.022.
Take GAATAAAAAC: the switch fluorescence ratio worked out at 1.01 ± 0.013.
GAATAAAAGC: the switch fluorescence ratio was 0.9901 ± 0.0063.
The result for GAATAAAATA reads 1.02 ± 0.039; that for GAATAGGTTA, 0.983 ± 0.026.
With GAATAGTCAG, the switch fluorescence ratio was found to be 0.978 ± 0.033.
Turning to GAATATCAAG, the switch fluorescence ratio was 0.9871 ± 0.0064.
With GAATATGCCG the figure was 0.972 ± 0.019; with GAATATGGGT, 0.995 ± 0.015.
With GAATCGATTT the figure was 1.02 ± 0.027.
For the sequence GAATCGTTTT, the switch fluorescence ratio was found to be 0.9553 ± 0.0068.
The result for GAATGAAAAT reads 0.997 ± 0.022; that for GAATGAACCA, 0.998 ± 0.049.
GAATGACAGT: the switch fluorescence ratio came out at 0.978 ± 0.018.
The result for GAATGACCGT reads 1.01 ± 0.024.
Turning to GAATGACGGA, the switch fluorescence ratio stood at 1.02 ± 0.057.
The result for GAATGATGGC reads 0.939 ± 0.065.
For the sequence GAATGCAAAG, the switch fluorescence ratio came to 1.03 ± 0.041.
Regarding GAATGGGATG, the switch fluorescence ratio turned out to be 1.002 ± 0.0023.
The result for GAATGGGGGC reads 0.98 ± 0.036; that for GAATGGGGGT, 0.982 ± 0.02.
GAATGGGTGA: the switch fluorescence ratio was determined as 0.983 ± 0.028.
On to GAATGGTCCC, for which the switch fluorescence ratio was 1.02 ± 0.012.
Regarding GAATGGTGGG, the switch fluorescence ratio worked out at 0.988 ± 0.019.
The result for GAATGTCGGG reads 0.97965 ± 8.2e-05; that for GAATTAAGCT, 1 ± 0.015; that for GAATTAATGG, 1.02 ± 0.07.
As to GAATTAATTT, the switch fluorescence ratio stood at 1 ± 0.04.
In the case of GAATTAGTTA, the switch fluorescence ratio worked out at 1.01 ± 0.02.
Consider GAATTATTGG, for which the switch fluorescence ratio is 0.975 ± 0.022.
The result for GAATTCAAGG reads 1.01 ± 0.082; that for GAATTCCGTA, 1.03 ± 0.042.
For the sequence GAATTCGGGA, the switch fluorescence ratio stood at 1 ± 0.013.
As for GAATTCTATG, the switch fluorescence ratio came out at 0.997 ± 0.042.
With GAATTCTTGA the figure was 0.9532 ± 0.0043; with GAATTGATTT, 1.009 ± 0.0065; with GAATTGGGTA, 0.957 ± 0.014.
With GAATTGTACC the figure was 1.03 ± 0.028; with GAATTGTTAG, 0.972 ± 0.028; with GAATTTAAAG, 1.007 ± 0.0018.
With GAATTTCGGT, the switch fluorescence ratio was 1.053 ± 0.0077.
Consider GAATTTGGGT, for which the switch fluorescence ratio was found to be 0.98 ± 0.034.
With GAATTTTGTA the figure was 0.984 ± 0.041; with GACAAAGGAC, 1.47 ± 0.09; with GACAAAGGAT, 1.04 ± 0.025.
The result for GACAACAAGG reads 1.047 ± 0.0089; that for GACAAGGAGG, 1.02 ± 0.028.
In the case of GACAAGTATT, the switch fluorescence ratio stood at 1.01 ± 0.013.
Regarding GACAATTAGT, the switch fluorescence ratio is 1.04 ± 0.0079.
In the case of GACACTAAGG, the switch fluorescence ratio was 1.01 ± 0.038.
As to GACACTTAGG, the switch fluorescence ratio stood at 1.05 ± 0.017.
For the sequence GACACTTGTA, the switch fluorescence ratio amounted to 1.02 ± 0.025.
With GACAGCGGGG the figure was 0.999 ± 0.036; with GACAGGGATC, 2.1 ± 1.6; with GACAGGGGCT, 1.06 ± 0.022.
Consider GACAGGGGGG, for which the switch fluorescence ratio stood at 1.01 ± 0.085.
With GACAGGTGAA the figure was 2.27 ± 0.041; with GACAGGTTAG, 0.9809 ± 0.0069; with GACAGGTTGA, 0.993 ± 0.036.
Consider GACAGTTAGC, for which the switch fluorescence ratio came out at 1.03 ± 0.013.
GACATAAGCA: the switch fluorescence ratio worked out at 1.03 ± 0.017.
Turning to GACATAGGGT, the switch fluorescence ratio came to 0.994 ± 0.025.
On to GACATAGTGG, for which the switch fluorescence ratio worked out at 1.006 ± 0.0012.
With GACATGAGGG, the switch fluorescence ratio is 1 ± 0.071.
